Experimental data reported in US11352401.

The binders below were run against T1, HLA-A*01 (human) (assay: UV peptide-exchange ELISA; ++++ = yield >75%).
T1 construct: MHC monomer made peptide-receptive by UV cleavage of a UV-sensitive ligand; also called peptide-receptive MHC class I monomer
Description: Candidate peptides for T cell based therapies according to the present invention were further tested for their MHC binding capacity (affinity). The individual peptide-MHC complexes were produced by UV-ligand exchange, where a UV-sensitive peptide is cleaved upon UV-irradiation, and exchanged with the peptide of interest as analyzed. Only peptide candidates that can effectively bind and stabilize the peptide-receptive MHC molecules prevent dissociation of the MHC complexes. To determine the yield of the exchange reaction, an ELISA was performed based on the detection of the light chain (β2m) of stabilized MHC complexes. The assay was performed as generally described in Rodenko et al. (Rodenko et al., 2006).
96 well MAXISorp plates (NUNC) were coated over night with 2 ug/ml streptavidin in PBS at room temperature, washed 4× and blocked for 1 h at 37° C. in 2% BSA containing blocking buffer. […] Peptide-MHC monomers of the UV-exchange reaction were diluted 100-fold in blocking buffer. Samples were incubated for 1 h at 37° C., washed four times, incubated with 2 ug/ml HRP conjugated anti-β2m for 1h at 37° C., washed again and detected with TMB solution that is stopped with […]. Absorption was measured at 450 nm.

Peptide exchange yield, > 75%:
FSDNDKLYLY [FSDNDKLYLY (SEQ ID NO: 407)]
FVDPLVTNY [FVDPLVTNY (SEQ ID NO: 409)]
GSDHQSPSSSSY [GSDHQSPSSSSY (SEQ ID NO: 410)]
GTVYEDLRY [GTVYEDLRY (SEQ ID NO: 411)]
ILDEVIMGY [ILDEVIMGY (SEQ ID NO: 412)]
ISDRYYTALY [ISDRYYTALY (SEQ ID NO: 413)]
LLDTAQKNLY [LLDTAQKNLY (SEQ ID NO: 416)]
LLEDKHFQSY [LLEDKHFQSY (SEQ ID NO: 417)]
LSELKPMSY [LSELKPMSY (SEQ ID NO: 419)]
LTEDKETLQY [LTEDKETLQY (SEQ ID NO: 420)]
LTELLERAAFY [LTELLERAAFY (SEQ ID NO: 421)]
MIDVTKSYY [MIDVTKSYY (SEQ ID NO: 422)]
NLDAVHDITVAY [NLDAVHDITVAY (SEQ ID NO: 423)]
NLDIIQQEY [NLDIIQQEY (SEQ ID NO: 425)]
NSDEQKITEMVY [NSDEQKITEMVY (SEQ ID NO: 427)]
NSELSCQLY [NSELSCQLY (SEQ ID NO: 428)]
NTEDSSMSGYLY [NTEDSSMSGYLY (SEQ ID NO: 429)]
NTEGLHHLY [NTEGLHHLY (SEQ ID NO: 430)]
NTSDMMGRMSY [NTSDMMGRMSY (SEQ ID NO: 431)]
QIDTGENLY [QIDTGENLY (SEQ ID NO: 433)]
QTDCAPNNGY [QTDCAPNNGY (SEQ ID NO: 434)]
QTDDTWRTEY [QTDDTWRTEY (SEQ ID NO: 435)]
QTETGTPYMLY [QTETGTPYMLY (SEQ ID NO: 436)]
STDGKHWWEY [STDGKHWWEY (SEQ ID NO: 437)]
TLDSALNAASYY [TLDSALNAASYY (SEQ ID NO: 441)]
TSDFSRFTNY [TSDFSRFTNY (SEQ ID NO: 442)]
TTDFPSESSFEY [TTDFPSESSFEY (SEQ ID NO: 443)]
VTAQVVGTERY [VTAQVVGTERY (SEQ ID NO: 446)]
YLDRGTGNVSFY [YLDRGTGNVSFY (SEQ ID NO: 449)]
YSDDGQKWTVY [YSDDGQKWTVY (SEQ ID NO: 450)]
YSDSLVQKGY [YSDSLVQKGY (SEQ ID NO: 451)]
YVDAVLGKGHQY [YVDAVLGKGHQY (SEQ ID NO: 452)]
AAEIGDKSWLY [AAEIGDKSWLY (SEQ ID NO: 134)]
ASEDSVLLY [ASEDSVLLY (SEQ ID NO: 135)]
ATSKFMEFY [ATSKFMEFY (SEQ ID NO: 137)]
DSDSCHFNY [DSDSCHFNY (SEQ ID NO: 138)]
GTEFTTILY [GTEFTTILY (SEQ ID NO: 148)]
GTEFTTVLY [GTEFTTVLY (SEQ ID NO: 149)]
GTELLSLVY [GTELLSLVY (SEQ ID NO: 150)]
LLDPNPHMY [LLDPNPHMY (SEQ ID NO: 155)]
LMDRPIFY [LMDRPIFY (SEQ ID NO: 157)]
LSDLLKQGY [LSDLLKQGY (SEQ ID NO: 158)]
LSDTSVIQFY [LSDTSVIQFY (SEQ ID NO: 159)]
QTDHPQPILDRY [QTDHPQPILDRY (SEQ ID NO: 168)]
RLDTPLYFSY [RLDTPLYFSY (SEQ ID NO: 169)]
RSDDTAVYY [RSDDTAVYY (SEQ ID NO: 170)]
RSDPVTLNVLY [RSDPVTLNVLY (SEQ ID NO: 171)]
RTEFNLNQY [RTEFNLNQY (SEQ ID NO: 173)]
SADDIRGIQSLY [SADDIRGIQSLY (SEQ ID NO: 174)]
SSDEVNFLVY [SSDEVNFLVY (SEQ ID NO: 177)]
STAKSATWTY [STAKSATWTY (SEQ ID NO: 179)]
STDPWIQMAY [STDPWIQMAY (SEQ ID NO: 180)]
TLEDIATSHLY [TLEDIATSHLY (SEQ ID NO: 183)]
TSDSNLNKY [TSDSNLNKY (SEQ ID NO: 185)]
